Experimental data reported in US20240034783A1 (SOTIO BIOTECH A S, published 2024).

B1: hCl1a (antibody, human IgG1, kappa, V domains shown)
VH: QVQLVQSGAEVKKPGASVKVSCKASGYTFTDYAMHWVRQAPGQRLEWMGWINTYTGKPTYAQKFQGRVTITRDTSASTAYMELSSLRSEDTAVYYCARAVFYGYTMDAWGQGTLVTVSS
VL: DIQMTQSPSSLSASVGDRVTITCRASEDIYSNLAWYQQKPGKAPKLLIFSVKRLQDGVPSRFSGSGSGTDFTLTISSLQPEDFATYYCLQGSNFPLTFGQGTKVEIKR
notes: Humanized
B2: hCl1b (antibody, human IgG1, kappa, V domains shown)
VH: QVQLVQSGAEVKKPGASVKVSCKASGYTFTDYAMHWVRQAPGQRLEWMGWINTYTGKPTYSQKFQGRVTITRDTSASTAYMELSSLRSEDTAVYYCARAVFYGYTMDAWGQGTLVTVSS
VL: DIQMTQSPSSLSASVGDRVTITCRASEDIYSNLAWYQQKPGKAPKLLIFSVKRLQDGVPSRFSGSGSGTDFTLTISSLQPEDFATYYCLQGSNFPLTFGQGTKVEIKR
notes: Humanized
B3: hCl1c (antibody, human IgG1, kappa, V domains shown)
VH: QVQLVQSGAEVKKPGASVKVSCKASGYTFTDYAMHWVRQAPGQRLEWMGWINTYTGKPTYSQKFQGRVTITRDTSASTAYMELSSLRSEDTAVYYCARAVFYGYTMDAWGQGTLVTVSS
VL: DIQMTQSPSSLSASVGDRVTITCRTSEDIYSNLAWYQQKPGKAPKLLIFAIKRLQDGVPSRFSGSGSGTDFTLTISSLQPEDFATYYCLQGSKFPLTFGQGTKVEIKR
notes: Humanized
B4: hCl1d (antibody, human IgG1, kappa, V domains shown)
VH: QVQLVQSGAEVKKPGASVKVSCKASGYTFTDYAMHWVRQAPGQRLEWMGWINTYTGKPTYSQKFQGRVTITRDTSASTAYMELSSLRSEDTAVYYCARAVFYGYTMDAWGQGTLVTVSS
VL: DIQMTQSPSSLSASVGDRVTITCRTSEDIYSNFAWYQQKPGKAPKLLIYSVNRLQDGVPSRFSGSGSGTDFTLTISSLQPEDFATYYCLQGSKFPLTFGQGTKVEIKR
notes: Humanized
B5: hCl1e (antibody, human IgG1, kappa, V domains shown)
VH: QVQLVQSGAEVKKPGASVKVSCKASGYTFTDYAMYWVRQAPGQRLEWMGWINTYTGKPTYAQKFQGRVTITRDTSASTAYMELSSLRSEDTAVYYCARAVFYGYTMDAWGQGTLVTVSS
VL: DIQMTQSPSSLSASVGDRVTITCRASEDIYSNLAWYQQKPGKAPKLLIFSVKRLQDGVPSRFSGSGSGTDFTLTISSLQPEDFATYYCLQGSNFPLTFGQGTKVEIKR
notes: Humanized
B6: hCl1f (antibody, human IgG1, kappa, V domains shown)
VH: QVQLVQSGAEVKKPGASVKVSCKASGYTFTDYAMHWVRQAPGQRLEWMGWINAYTGKPTYAQKFQGRVTITRDTSASTAYMELSSLRSEDTAVYYCARAVFYGYTMDAWGQGTLVTVSS
VL: DIQMTQSPSSLSASVGDRVTITCRASEDIYSNLAWYQQKPGKAPKLLIYSVKRLQDGVPSRFSGSGSGTDFTLTISSLQPEDFATYYCLQGSNFPLTFGQGTKVEIKR
notes: Humanized
B7: hCl1g (antibody, human IgG1, kappa, V domains shown)
VH: QVQLVQSGAEVKKPGASVKVSCKASGYTFTDYAMHWVRQAPGQRLEWMGWINAYTGKPTYAQKFQGRVTITRDTSASTAYMELSSLRSEDTAVYYCARAVFYGYTMDAWGQGTLVTVSS
VL: DIQMTQSPSSLSASVGDRVTITCRTSEDIYSNFAWYQQKPGKAPKLLIYSVNRLQDGVPSRFSGSGSGTDFTLTISSLQPEDFATYYCLQGSKFPLTFGQGTKVEIKR
notes: Humanized
B8: hCl1h (antibody, human IgG1, kappa, V domains shown)
VH: QVQLVQSGAEVKKPGASVKVSCKASGYTFTDYAMYWVRQAPGQRLEWMGWINAYTGKPTYAQKFQGRVTITRDTSASTAYMELSSLRSEDTAVYYCARAVYYGYTMDAWGQGTLVTVSS
VL: DIQMTQSPSSLSASVGDRVTITCRASEDIYSNLAWYQQKPGKAPKLLIYSVKRLQDGVPSRFSGSGSGTDFTLTISSLQPEDFATYYCLQGSNFPLTFGQGTKVEIKR
notes: Humanized
B9: hCl1i (antibody, human IgG1, kappa, V domains shown)
VH: QVQLVQSGAEVKKPGASVKVSCKASGYTFTDYAMYWVRQAPGQRLEWMGWINAYTGKPTYAQKFQGRVTITRDTSASTAYMELSSLRSEDTAVYYCARAVYYGYTMDAWGQGTLVTVSS
VL: DIQMTQSPSSLSASVGDRVTITCRASEDIYSNLAWYQQKPGKAPKLLIFSVKRLQDGVPSRFSGSGSGTDFTLTISSLQPEDFATYYCLQGSNFPLTFGQGTKVEIKR
notes: Humanized
B10: hCl1j (antibody, human IgG1, kappa, V domains shown)
VH: QVQLVQSGAEVKKPGASVKVSCKASGYTFTDYAMYWVRQAPGQRLEWMGWINAYTGKPTYAQKFQGRVTITRDTSASTAYMELSSLRSEDTAVYYCARAVYYGYTMDAWGQGTLVTVSS
VL: DIQMTQSPSSLSASVGDRVTITCRTSEDIYSNLAWYQQKPGKAPKLLIFAIKRLQDGVPSRFSGSGSGTDFTLTISSLQPEDFATYYCLQGSKFPLTFGQGTKVEIKR
notes: Humanized
B11: cCl1-1 (antibody, V domains shown)
VH: QIQLVQSGPELKKPGESVKISCKASGYTFTDYAMHWVKQAPGKGLKWMGWINTYTGKPTYADDFKGRFVFSLEASASTANLQISNLKNEDTATYFCARAVFYGYTMDAWGQGTSVTVSS
VL: DIQMTQSPASLSASLGETISIACRASEDIYSNLAWYQQKSGKSPQLLIFSVKRLQDGVPSRFSGSGSGTQYSLKISGMQPEDEGDYFCLQGSNFPLTFGSGTKLEIK
notes: Chimeric antibody from a rat hybridoma; not built in; also called chimeric cCl1-1 antibody

Assays:
human CLDN18.2 [1] = target: T1, human CLDN18.2 (human); test: flow cytometry titration, HEK293T cells overexpressing CLDN18.2
T1 construct: also called huCLDN18.2; hCLDN18.2
Procedure: (§1) In order to have a more homogenous cell population, the cells were sorted by FACS to select only cells with a the higher CLDN18.2 expression. […] After wash in FACS buffer, the cells were incubated with the PE-labeled Fey specific IgG goat anti-human secondary antibody (eBioscience) on ice for 30 min. After wash, the stained cells were resuspended in FACS buffer, analyzed and sorted by a FACSAria™ instrument, separating medium expressing cells from high expressing cells (FIG. 2B). […] HEK293T cells overexpressing CLDN18.2 or CLDN18.1 were generated as described in Example 3 and the expression of CLDN18.2 was analyzed by flow cytometry (FIG. 3).
(§2) A PE-coupled secondary anti-human IgG antibody was added to the cells for additional 30 min at 4° C. after washes with the FC buffer, followed by further washes with FC buffer. The cells were then resuspended in 100 μl FC buffer and measured with a FACSCalibur™ cell analyzer (BD Biosciences, USA).

human CLDN18.2 [2] = target: T1, human CLDN18.2; test: flow cytometry; % positive tumor cells divided by % positive healthy stomach cells
Procedure: (§3) Two Balb/c mice were implanted subcutaneously with 1×10⁶ A549 cells expressing CLDN18.2 in 100 μl of 50% Matrigel and tumors growth was monitored over a few weeks until the tumor reached the desired size between 150-450 mm 3. Healthy stomach tissue and tumor tissue was collected for FC analysis. The collected tissues were cut into small pieces and digested with the Miltenyi tumor dissociation kit (MACS Miltenyi Biotec, Germany). Tissue pieces were incubated with dissociation buffer (prepared according to the manufacturer instruction) in 6 well plates for 30 min in 37° C. under permanent gentle rocking motion. Samples were resuspended and strained through a 70 μm cell strainer (Corning, USA) followed by a wash with 20 ml FC buffer (PBS+2% FBS). Cell suspensions were centrifuged (5 min at 400 g for 4° C.) and the supernatants were discarded. If needed, cell suspensions were passed through a strainer and centrifuged repeatedly and pellets resuspended in 5 ml of red blood cell lysis buffer (Biolegend, USA), incubated on ice for 4 min. After incubation, 25 ml of PBS was added, and the suspensions were centrifuged again (5 min at 400 g for 4° C.). Pellets were resuspended in FC buffer (0.5-3 ml based on pellets). Equal number of cells were transferred into 96 well plates and further processed for FC analysis. The cells in the plates were washed with PBS and centrifuged (400 g for 2 min at 4° C.). […] After incubation, cells were washed twice in PBS and centrifuged (400 g for 2 min at 4° C.). Pellets were resuspended in 50 μl/well of secondary staining mix (PBS+PE-labelled anti-human antibody) (Thermo Fisher Scientific, USA), and incubated 25 min on ice. After incubation cells were washed again twice in PBS. Pellets were resuspended in 100 μl of PBS containing DAPI. Plates were kept on ice until FC analysis. For FC analysis, live cells were separated from dead cells by forward scatter and DAPI stain. Live cells were then gated for the presence of cytokeratin ([…]) and bound CLDN18.2 antibodies (PE positive cells).

human CLDN18.2 [3] = target: T1, human CLDN18.2; test: flow cytometry, live cells from mouse tumor of A549 cells expressing CLDN18.2, antibody 4 µg/ml
Procedure: as §3

human CLDN18.2 [4] = target: T1, human CLDN18.2; test: flow cytometry titration, PA-TU-8988S-High cells
Procedure: as §1, §2

Binder | EC50 (human CLDN18.2 [1]) | Max MFI (human CLDN18.2 [1]) | Ratio tumor/stomach (Average) (human CLDN18.2 [2]) | Ratio tumor/stomach (Mouse 1) (human CLDN18.2 [2]) | Ratio tumor/stomach (Mouse 2) (human CLDN18.2 [2]) | % of positive tumor cells (Average) (human CLDN18.2 [3]) | % of positive tumor cells (Mouse 1) (human CLDN18.2 [3]) | % of positive tumor cells (Mouse 2) (human CLDN18.2 [3]) | EC50 (human CLDN18.2 [4]) | Max MFI (human CLDN18.2 [4])
B1 | 0.598 µg/mL | 1880 MFI | 34.7 | 28.3 | 60 | 26% | 34% | 18% | 2.43 µg/mL | 1650 MFI
B2 | 0.572 µg/mL | 1860 MFI | 53.1 | 43 | 131 | 30% | 43% | 17% | 1.98 µg/mL | 1720 MFI
B3 | 0.753 µg/mL | 1230 MFI | 74 | 290 | 20 | 18.5% | 29% | 8% | 1.47 µg/mL | 1050 MFI
B4 | 0.541 µg/mL | 1640 MFI |  |  |  |  |  |  | 1.93 µg/mL | 1530 MFI
B5 | 0.558 µg/mL | 1940 MFI |  |  |  |  |  |  | 2.24 µg/mL | 1860 MFI
B6 | 0.795 µg/mL | 1720 MFI | 329 | 800 | 140 | 23% | 32% | 14% | 2.14 µg/mL | 1600 MFI
B7 | 0.678 µg/mL | 1440 MFI |  |  |  |  |  |  | 1.77 µg/mL | 1250 MFI
B8 | 0.432 µg/mL | 2080 MFI |  |  |  |  |  |  | 1.75 µg/mL | 1950 MFI
B9 | 0.444 µg/mL | 2180 MFI |  |  |  |  |  |  | 1.23 µg/mL | 2090 MFI
B10 | 0.408 µg/mL | 1850 MFI |  |  |  |  |  |  | 1.16 µg/mL | 1700 MFI
B11 |  |  | 74.3 | 92.5 | 50 | 26% | 37% | 15% |  | 
